According to US20250026849A1 (ARCELLX, published 2025):
Numbering of substitutions follows the chain as printed.

T1: P26 (human, UniProt P02771 381-609, limits assumed)
T1 construct: also called AFP p26
T1 sequence: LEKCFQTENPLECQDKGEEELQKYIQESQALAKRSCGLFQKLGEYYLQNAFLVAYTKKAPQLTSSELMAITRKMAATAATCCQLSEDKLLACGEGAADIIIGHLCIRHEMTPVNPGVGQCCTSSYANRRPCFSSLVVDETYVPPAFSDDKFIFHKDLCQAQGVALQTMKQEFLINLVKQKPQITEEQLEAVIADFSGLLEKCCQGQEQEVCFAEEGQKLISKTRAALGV

B1: D domain SEQ ID NO: 926 (designed binder)
chain: MGSWGEFTVRLYAIDRRLDALGGSEAELAAFEKEIAAFESELQAYKGKGNPEVEELRRFAAIIRAFLQAYRHN
B2: D domain SEQ ID NO: 936 (designed binder)
chain: MGSWSLFKHRLANIKVYLEALGGSEAELADFETFIAYFEKDLQEYKGKGNPEVEALRKEAAAIRDELQAYRHN
B3: D domain SEQ ID NO: 929 (designed binder)
chain: MGSWHHFKYFLADIKSILEALGGSEAELAIFEVQIAYFEDLLQSYKGKGNPEVEALRKEAAAIRDELQAYRHN
B4: D domain SEQ ID NO: 923 (designed binder)
chain: MGSWFEFSDRLYAIWERLDALGGSEAELAAFEKEIAAFESELQAYKGKGNPEVESLRFQAAFIRYQLQAYRHN
B5: D domain SEQ ID NO: 924 (designed binder)
chain: B4 chain with S8E, Y12F, E16T, D19E, F58Q, Q59S, F62S, Y65W, Q66L
B6: D domain SEQ ID NO: 925 (designed binder)
chain: MGSWHEFSERLFAIWTRLEALGGSEAELAAFEKEIAAFESELQAYKGKGNPEVEALRQSAAFIRVMLQAYRHN
B7: D domain SEQ ID NO: 934 (designed binder)
chain: MGSWENFKDTLAWIKEYLEALGGSEAELAGFEHRIAIFEHYLQYYKGKGNPEVEALRKEAAAIRDELQAYRHN
B8: D domain SEQ ID NO: 931 (designed binder)
chain: MGSWFYFKYELAWIKHWLEALGGSEAELASFETHIAFFEHQLQYYKGKGNPEVEALRKEAAAIRDELQAYRHN
B9: D domain SEQ ID NO: 935 (designed binder)
chain: MGSWVLFKDYLADIKHYLEALGGSEAELANFEHLIANFEGDLQTYKGKGNPEVEALRKEAAAIRDELQAYRHN
B10: D domain SEQ ID NO: 939 (designed binder)
chain: MGSWVLFKQELAWIKWLLEALGGSEAELAAFEEQIARFEHDLQKYKGKGNPEVEALRKEAAAIRDELQAYRHN
B11: D domain SEQ ID NO: 941 (designed binder)
chain: B10 chain with V5F, Q9S, L17R, A30Y, E33Y, R37E, H40F, D41W, K44S
B12: D domain SEQ ID NO: 940 (designed binder)
chain: B10 chain with L17Y, E33W, Q34E, R37A, H40Q, D41R, K44I
B13: D domain SEQ ID NO: 933 (designed binder)
chain: MGSWAYFKGQLAYIKSGLEALGGSEAELAYFELRIAYFEHWLQNYKGKGNPEVEALRKEAAAIRDELQAYRHN
B14: D domain SEQ ID NO: 927 (designed binder)
chain: MGSWYEFDHRLMAISFRLVALGGSEAELAAFEKEIAAFESELQAYKGKGNPEVETLRRRAANIRHLLQAYRHN
B15: D domain SEQ ID NO: 937 (designed binder)
chain: MGSWEHFKVELAGIKAYLEALGGSEAELALFEWAIADFESILQDYKGKGNPEVEALRKEAAAIRDELQAYRHN
B16: D domain SEQ ID NO: 938 (designed binder)
chain: B15 chain with E5I, H6Y, V9D, A16K, L30M, W33V, S40A, D44K
B17: D domain SEQ ID NO: 930 (designed binder)
chain: MGSWLYFKYNLAVIKHWLEALGGSEAELAIFEMSIADFEYELQWYKGKGNPEVEALRKEAAAIRDELQAYRHN
B18: D domain SEQ ID NO: 928 (designed binder)
chain: MGSWSIFKYHLADIKLLLEALGGSEAELAYFEFLIADFEFTLQDYKGKGNPEVEALRKEAAAIRDELQAYRHN
B19: D domain SEQ ID NO: 932 (designed binder)
chain: MGSWADFKWTLAYIKHRLEALGGSEAELAFFEMEIAYFEQSLQNYKGKGNPEVEALRKEAAAIRDELQAYRHN

Each binder was assayed against T1, P26 (assay: ELISA, format not described).
Parameters: unit not given here
B1 showed an ELISA_avg of 8.54.
Binder B2 has an ELISA_avg of 19.6.
B3 was tested, and the ELISA_avg was 8.
Work on B4 yielded an ELISA_avg of 19.
B5 gave an ELISA_avg of 10.9.
B6 was tested, and the ELISA_avg was 8.21.
B7 gave an ELISA_avg of 19.2.
For B8, the ELISA_avg was 13.7.
B9 was tested, and the ELISA_avg was 13.8.
In the case of B10, the ELISA_avg is reported as 29.5.
Work on B11 yielded an ELISA_avg of 25.8.
With B12 the ELISA_avg was 22.5.
In the case of B13, the ELISA_avg is reported as 11.4.
B14 was tested, and the ELISA_avg was 20.1.
B15 gave an ELISA_avg of 18.1.
In the case of B16, the ELISA_avg is reported as 15.9.
For B17, the ELISA_avg was 13.3.
With B18 the ELISA_avg was 20.2.
Binder B19 has an ELISA_avg of 31.5.
